Measured values from paper PMC10786891, “Massively parallel profiling of RNA-targeting CRISPR-Cas13d”.

T1: EsCas13d, nuclease-dead (Eubacterium siraeum, UniProt B0MS50, R295A;H300A;R849A;H854A)
T1 sequence: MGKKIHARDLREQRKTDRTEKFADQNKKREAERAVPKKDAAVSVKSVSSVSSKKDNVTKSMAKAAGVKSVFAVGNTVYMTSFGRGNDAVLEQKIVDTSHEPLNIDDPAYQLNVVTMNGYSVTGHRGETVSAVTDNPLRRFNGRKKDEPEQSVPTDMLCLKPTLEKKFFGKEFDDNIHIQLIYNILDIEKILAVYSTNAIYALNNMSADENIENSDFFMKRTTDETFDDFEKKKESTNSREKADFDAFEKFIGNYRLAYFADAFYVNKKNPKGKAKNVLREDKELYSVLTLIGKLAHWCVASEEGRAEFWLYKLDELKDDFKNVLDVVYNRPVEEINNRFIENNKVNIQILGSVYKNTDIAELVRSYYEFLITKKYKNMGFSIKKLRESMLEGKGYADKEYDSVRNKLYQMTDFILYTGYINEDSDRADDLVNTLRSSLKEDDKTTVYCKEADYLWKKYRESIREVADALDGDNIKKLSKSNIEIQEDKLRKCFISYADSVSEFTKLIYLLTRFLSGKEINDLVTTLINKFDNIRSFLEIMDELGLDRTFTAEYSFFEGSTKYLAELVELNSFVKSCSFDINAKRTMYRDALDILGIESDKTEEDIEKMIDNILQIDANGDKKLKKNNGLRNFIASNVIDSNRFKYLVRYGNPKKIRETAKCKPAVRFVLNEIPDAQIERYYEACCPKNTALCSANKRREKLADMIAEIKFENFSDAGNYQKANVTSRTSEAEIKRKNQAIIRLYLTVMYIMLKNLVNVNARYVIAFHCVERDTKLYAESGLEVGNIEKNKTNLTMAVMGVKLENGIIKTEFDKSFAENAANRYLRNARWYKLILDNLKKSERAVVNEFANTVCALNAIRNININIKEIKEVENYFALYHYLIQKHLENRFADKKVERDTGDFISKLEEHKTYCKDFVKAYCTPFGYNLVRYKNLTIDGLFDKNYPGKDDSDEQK


target: T1, EsCas13d, nuclease-dead; experiment: crRNA (strand 1, pre-loaded); Mg2+; 40 mM Tris-HCl pH 7.5, 150 mM NaCl, 6 mM MgCl2, 1 mM DTT, 0.1% Tween-20, 0.2 mg/ml BSA; 25 C; 10 min per concentration, then washed; conditions: tags: His6-TwinStrep-SUMO cleaved; N-terminal SNAP kept (SNAP-Surface 488); label: 3' end held by stalled T7 RNA polymerase

Row | Binder | Kd [nM]
1 | target 3 insA 3' of 4,insG 3' of 2 (mixed) RNA 1: CACCCGUGCAAAAUUGCAGGGGUCUAAAACGACCUGAAUAUUUCAGAUCAAA RNA 2: GGGAAUGGAUCCACAUCUACGAAUUCGUUUUUGAUCUGAAAUAUUCAGAGUGCUGCAGAUCGGAAGAGCACACGU | 49 ± 7
2 | target 3 complement block 13-15 (mixed) RNA 1: CACCCGUGCAAAAUUGCAGGGGUCUAAAACGACCUGAAUAUUUCAGAUCAAA RNA 2: GGGAAUGGAUCCACAUCUACGAAUUCGUUUUUGAUCACUAAUAUUCAGGUCUGCAGAUCGGAAGAGCACACGU | 67.8 ± 31.8
3 | target 3 insG 3' of 9,insA 3' of 4 (mixed) RNA 1: CACCCGUGCAAAAUUGCAGGGGUCUAAAACGACCUGAAUAUUUCAGAUCAAA RNA 2: GGGAAUGGAUCCACAUCUACGAAUUCGUUUUUGAUCUGAAAUAGUUCAGAGUCUGCAGAUCGGAAGAGCACACGU | 60 ± 26.5
4 | target 3 U7C,U8A (mixed) RNA 1: CACCCGUGCAAAAUUGCAGGGGUCUAAAACGACCUGAAUAUUUCAGAUCAAA RNA 2: GGGAAUGGAUCCACAUCUACGAAUUCGUUUUUGAUCUGAAAUAACCAGGUCUGCAGAUCGGAAGAGCACACGU | 114 ± 28
5 | target 3 insG 3' of 5,insA 3' of 4 (mixed) RNA 1: CACCCGUGCAAAAUUGCAGGGGUCUAAAACGACCUGAAUAUUUCAGAUCAAA RNA 2: GGGAAUGGAUCCACAUCUACGAAUUCGUUUUUGAUCUGAAAUAUUCAGGAGUCUGCAGAUCGGAAGAGCACACGU | 9.2 ± 1.05
6 | target 3 insA 3' of 8,insA 3' of 2 (mixed) RNA 1: CACCCGUGCAAAAUUGCAGGGGUCUAAAACGACCUGAAUAUUUCAGAUCAAA RNA 2: GGGAAUGGAUCCACAUCUACGAAUUCGUUUUUGAUCUGAAAUAUAUCAGGUACUGCAGAUCGGAAGAGCACACGU | 59.5 ± 18.5
7 | target 3 insA 3' of 21,insC 3' of 5 (mixed) RNA 1: CACCCGUGCAAAAUUGCAGGGGUCUAAAACGACCUGAAUAUUUCAGAUCAAA RNA 2: GGGAAUGGAUCCACAUCUACGAAUUCGUUUUAUGAUCUGAAAUAUUCACGGUCUGCAGAUCGGAAGAGCACACGU | 69.5 ± 11.5
8 | target 3 insU 3' of 6,insU 3' of 5 (mixed) RNA 1: CACCCGUGCAAAAUUGCAGGGGUCUAAAACGACCUGAAUAUUUCAGAUCAAA RNA 2: GGGAAUGGAUCCACAUCUACGAAUUCGUUUUUGAUCUGAAAUAUUCUAUGGUCUGCAGAUCGGAAGAGCACACGU | 7.93 ± 0.61
9 | target 3 U2A,A13U (mixed) RNA 1: CACCCGUGCAAAAUUGCAGGGGUCUAAAACGACCUGAAUAUUUCAGAUCAAA RNA 2: GGGAAUGGAUCCACAUCUACGAAUUCGUUUUUGAUCUGUAAUAUUCAGGACUGCAGAUCGGAAGAGCACACGU | ~91.5
10 | target 3 A11C,U15C (mixed) RNA 1: CACCCGUGCAAAAUUGCAGGGGUCUAAAACGACCUGAAUAUUUCAGAUCAAA RNA 2: GGGAAUGGAUCCACAUCUACGAAUUCGUUUUUGAUCCGAACUAUUCAGGUCUGCAGAUCGGAAGAGCACACGU | 50 ± 9
11 | target 3 insC 3' of 9,insG 3' of 2 (mixed) RNA 1: CACCCGUGCAAAAUUGCAGGGGUCUAAAACGACCUGAAUAUUUCAGAUCAAA RNA 2: GGGAAUGGAUCCACAUCUACGAAUUCGUUUUUGAUCUGAAAUACUUCAGGUGCUGCAGAUCGGAAGAGCACACGU | 81.5 ± 19
12 | target 3 insA 3' of 21,insA 3' of 21 (mixed) RNA 1: CACCCGUGCAAAAUUGCAGGGGUCUAAAACGACCUGAAUAUUUCAGAUCAAA RNA 2: GGGAAUGGAUCCACAUCUACGAAUUCGUUUUAAUGAUCUGAAAUAUUCAGGUCUGCAGAUCGGAAGAGCACACGU | 29.8 ± 4.05
13 | target 3 del2,del19 (mixed) RNA 1: CACCCGUGCAAAAUUGCAGGGGUCUAAAACGACCUGAAUAUUUCAGAUCAAA RNA 2: GGGAAUGGAUCCACAUCUACGAAUUCGUUUUUAUCUGAAAUAUUCAGGCUGCAGAUCGGAAGAGCACACGU | 98.5 ± 25
14 | target 3 insU 3' of 22,insU 3' of 19 (mixed) RNA 1: CACCCGUGCAAAAUUGCAGGGGUCUAAAACGACCUGAAUAUUUCAGAUCAAA RNA 2: GGGAAUGGAUCCACAUCUACGAAUUCGUUUUUUGUAUCUGAAAUAUUCAGGUCUGCAGAUCGGAAGAGCACACGU | 54 ± 14.5
15 | target 3 G3A,U8G (mixed) RNA 1: CACCCGUGCAAAAUUGCAGGGGUCUAAAACGACCUGAAUAUUUCAGAUCAAA RNA 2: GGGAAUGGAUCCACAUCUACGAAUUCGUUUUUGAUCUGAAAUAGUCAGAUCUGCAGAUCGGAAGAGCACACGU | 108 ± 33.5
16 | target 3 insU 3' of 22 (mixed) RNA 1: CACCCGUGCAAAAUUGCAGGGGUCUAAAACGACCUGAAUAUUUCAGAUCAAA RNA 2: GGGAAUGGAUCCACAUCUACGAAUUCGUUUUUUGAUCUGAAAUAUUCAGGUCUGCAGAUCGGAAGAGCACACGU | 17.4 ± 1.8
17 | target 3 U2C,A11C (mixed) RNA 1: CACCCGUGCAAAAUUGCAGGGGUCUAAAACGACCUGAAUAUUUCAGAUCAAA RNA 2: GGGAAUGGAUCCACAUCUACGAAUUCGUUUUUGAUCUGAACUAUUCAGGCCUGCAGAUCGGAAGAGCACACGU | 54.5 ± 7.7
18 | target 3 C6A,U7A (mixed) RNA 1: CACCCGUGCAAAAUUGCAGGGGUCUAAAACGACCUGAAUAUUUCAGAUCAAA RNA 2: GGGAAUGGAUCCACAUCUACGAAUUCGUUUUUGAUCUGAAAUAUAAAGGUCUGCAGAUCGGAAGAGCACACGU | 46.5 ± 5
19 | target 3 U8A,A11C (mixed) RNA 1: CACCCGUGCAAAAUUGCAGGGGUCUAAAACGACCUGAAUAUUUCAGAUCAAA RNA 2: GGGAAUGGAUCCACAUCUACGAAUUCGUUUUUGAUCUGAACUAAUCAGGUCUGCAGAUCGGAAGAGCACACGU | 42 ± 7
20 | target 3 C1U,U22G (mixed) RNA 1: CACCCGUGCAAAAUUGCAGGGGUCUAAAACGACCUGAAUAUUUCAGAUCAAA RNA 2: GGGAAUGGAUCCACAUCUACGAAUUCGUUGUUGAUCUGAAAUAUUCAGGUUUGCAGAUCGGAAGAGCACACGU | 77.5 ± 21
21 | target 3 U2A,G3C (mixed) RNA 1: CACCCGUGCAAAAUUGCAGGGGUCUAAAACGACCUGAAUAUUUCAGAUCAAA RNA 2: GGGAAUGGAUCCACAUCUACGAAUUCGUUUUUGAUCUGAAAUAUUCAGCACUGCAGAUCGGAAGAGCACACGU | 23.2 ± 2
22 | target 3 insG 3' of 1,insG 3' of 1 (mixed) RNA 1: CACCCGUGCAAAAUUGCAGGGGUCUAAAACGACCUGAAUAUUUCAGAUCAAA RNA 2: GGGAAUGGAUCCACAUCUACGAAUUCGUUUUUGAUCUGAAAUAUUCAGGUCGGUGCAGAUCGGAAGAGCACACGU | 85 ± 31.5
23 | target 3 U7C,U22A (mixed) RNA 1: CACCCGUGCAAAAUUGCAGGGGUCUAAAACGACCUGAAUAUUUCAGAUCAAA RNA 2: GGGAAUGGAUCCACAUCUACGAAUUCGUUAUUGAUCUGAAAUAUCCAGGUCUGCAGAUCGGAAGAGCACACGU | 88.5 ± 21.5
24 | target 3 insA 3' of 7,insG 3' of 5 (mixed) RNA 1: CACCCGUGCAAAAUUGCAGGGGUCUAAAACGACCUGAAUAUUUCAGAUCAAA RNA 2: GGGAAUGGAUCCACAUCUACGAAUUCGUUUUUGAUCUGAAAUAUUACAGGGUCUGCAGAUCGGAAGAGCACACGU | 42 ± 6.5
25 | target 3 U7A,U8A (mixed) RNA 1: CACCCGUGCAAAAUUGCAGGGGUCUAAAACGACCUGAAUAUUUCAGAUCAAA RNA 2: GGGAAUGGAUCCACAUCUACGAAUUCGUUUUUGAUCUGAAAUAAACAGGUCUGCAGAUCGGAAGAGCACACGU | 83 ± 15.5
26 | target 3 complement block 1-3 (mixed) RNA 1: CACCCGUGCAAAAUUGCAGGGGUCUAAAACGACCUGAAUAUUUCAGAUCAAA RNA 2: GGGAAUGGAUCCACAUCUACGAAUUCGUUUUUGAUCUGAAAUAUUCAGCAGUGCAGAUCGGAAGAGCACACGU | 23.1 ± 3.9
27 | target 1 U8C,C22A (mixed) RNA 1: CACCCGUGCAAAAAUGCAGGGGUCUAAAACUGAGCGGAUAACCUCUCUAUGG RNA 2: GGGAAUGGAUCCACAUCUACGAAUUCGUAACAUAGAGAGGUUACCCGCUCACCGAGAUCGGAAGAGCACACGU | 21.9 ± 2.2
28 | target 1 insA 3' of 5,insG 3' of 1 (mixed) RNA 1: CACCCGUGCAAAAAUGCAGGGGUCUAAAACUGAGCGGAUAACCUCUCUAUGG RNA 2: GGGAAUGGAUCCACAUCUACGAAUUCGUACCAUAGAGAGGUUAUCCGACUCAGCCGAGAUCGGAAGAGCACACGU | 5.4 ± 0.4
